This is an account of results in article PMC3642112.

The target of data set [1] is human translin (wild-type) (human, UniProt Q15631 1-228). The data set is described as follows: EMSA.
For data set [2], the target named is T1, translin (wild-type, native) (Drosophila melanogaster, UniProt Q7JVK6 1-235).
T1 sequence: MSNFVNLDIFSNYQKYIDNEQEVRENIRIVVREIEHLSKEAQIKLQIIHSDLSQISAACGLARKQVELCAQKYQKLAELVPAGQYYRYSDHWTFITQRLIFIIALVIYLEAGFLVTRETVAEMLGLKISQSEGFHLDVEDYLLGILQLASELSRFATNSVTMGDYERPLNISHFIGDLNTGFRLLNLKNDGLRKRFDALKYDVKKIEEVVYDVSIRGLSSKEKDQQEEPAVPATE
Description: EMSA. In general terms: In EMSA bound probe runs differently from free probe, usually more slowly.

human translin (wild-type), sequence (Q15631 whole entry): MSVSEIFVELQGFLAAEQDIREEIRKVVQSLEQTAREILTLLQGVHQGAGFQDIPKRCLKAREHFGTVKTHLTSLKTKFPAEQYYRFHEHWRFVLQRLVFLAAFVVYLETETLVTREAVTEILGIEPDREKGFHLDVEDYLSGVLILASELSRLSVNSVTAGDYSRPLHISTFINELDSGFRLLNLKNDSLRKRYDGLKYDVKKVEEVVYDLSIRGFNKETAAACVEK

Turning to GCCCTCCTGCCCTCCTTCCGCGGG (ssDNA) [Bcl-CL1 24-mer ssDNA], the binding result in data set [1] and in data set [2] was “binds” throughout.
